In general, IC50 refers to the concentration that gives 50% inhibition. Higher therefore signals weaker potency in that assay.

For test [1], the target named is T1, Human LILRB5 ECD recombinant protein with 6×His-tag (human, UniProt O75023 24-458, limits assumed).
T1 construct: Bought protein; not shown: 6×His-tag
The test is described as follows: ELISA: plate coated with LILRB5 ECD recombinant protein [continued) I]. Background: An ELISA detects its analyte on a solid surface through an enzyme-linked reagent.

Test [2] concerns the target T2, Human LILRA2 ECD recombinant protein with His-tag (human, UniProt Q8N149 24-449).
T2 construct: range 24-449; Bought protein; not shown: His-tag
The test is described as follows: ELISA: plate coated with LILRA2 ECD recombinant protein [continued) B].

In test [3] the target is T3, Human LILRB2 stably expressed on EL4 cells (EL4/LILRB2) (human, UniProt Q8N423 22-597).
T3 construct: also called EL4-LILRB2 cells; cell membrane human LILRB2
T3 sequence (Q8N423 22-597 limits assumed): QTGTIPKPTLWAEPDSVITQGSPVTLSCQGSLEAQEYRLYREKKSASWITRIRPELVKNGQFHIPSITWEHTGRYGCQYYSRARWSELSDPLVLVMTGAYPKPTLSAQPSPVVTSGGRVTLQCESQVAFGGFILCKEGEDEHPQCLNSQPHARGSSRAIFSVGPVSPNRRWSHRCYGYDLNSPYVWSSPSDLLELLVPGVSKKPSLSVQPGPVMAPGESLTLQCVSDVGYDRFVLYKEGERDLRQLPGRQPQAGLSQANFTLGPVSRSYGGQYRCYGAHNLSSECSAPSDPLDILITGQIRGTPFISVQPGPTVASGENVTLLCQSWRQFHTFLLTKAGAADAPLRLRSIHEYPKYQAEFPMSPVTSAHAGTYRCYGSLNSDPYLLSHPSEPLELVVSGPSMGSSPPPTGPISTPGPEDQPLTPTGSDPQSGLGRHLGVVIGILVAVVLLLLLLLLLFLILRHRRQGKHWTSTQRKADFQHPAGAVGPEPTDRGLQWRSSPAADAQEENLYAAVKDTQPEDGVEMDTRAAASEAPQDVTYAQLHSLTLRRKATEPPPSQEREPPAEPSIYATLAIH
The test is described as follows: competitive FACS on EL4/LILRB2 cells, blockade of HLA-G binding.
Description: (§1) The blocking activities were determined by quantitating the blockade of the ligands binding to EL4/LILRB2 cells.

Test [4] addresses T4, Human LILRA1 ECD recombinant protein with 6×His-tag (human, UniProt O75019 17-461).
T4 construct: range 1-461; Bought protein; not shown: 6×His-tag
The test can be described thus: ELISA: plate coated with LILRA1 ECD recombinant protein.

Test [5] addresses T5, Human LILRB3 ECD recombinant protein with 6×His-tag (human, UniProt O75022 24-443).
T5 construct: range 1-443; Bought protein; not shown: 6×His-tag
The test can be described thus: ELISA: plate coated with LILRB3 ECD recombinant protein [continued) G].

The target of test [6] is T3, Human LILRB2 stably expressed on EL4 …. The test can be described thus: Competitive FACS: EL4/LILRB2 cells preincubated with 10 ug/mL antibody, then MAG ECD added; inhibition of the ligand's binding to the cells [panel MAG].
Description: as §1
For test [7] the target is unchanged. The test is described as follows: Competitive FACS: EL4/LILRB2 cells preincubated with 10 ug/mL antibody, then HLA-A2 complex added; inhibition of the ligand's binding to the cells [panel HLA-A2].
Description: as §1
For test [8] the target is unchanged. The test can be described thus: Competitive FACS: EL4/LILRB2 cells preincubated with 10 ug/mL antibody, then ANGPTL1 added; inhibition of the ligand's binding to the cells [panel ANGPTL1].
Description: as §1
Test [9] deals with T6, Human LILRA4 ECD recombinant protein with 6×His-tag (human, UniProt P59901 24-446).
T6 construct: range 1-446; Bought protein; not shown: 6×His-tag
T6 sequence (P59901 24-446 limits assumed): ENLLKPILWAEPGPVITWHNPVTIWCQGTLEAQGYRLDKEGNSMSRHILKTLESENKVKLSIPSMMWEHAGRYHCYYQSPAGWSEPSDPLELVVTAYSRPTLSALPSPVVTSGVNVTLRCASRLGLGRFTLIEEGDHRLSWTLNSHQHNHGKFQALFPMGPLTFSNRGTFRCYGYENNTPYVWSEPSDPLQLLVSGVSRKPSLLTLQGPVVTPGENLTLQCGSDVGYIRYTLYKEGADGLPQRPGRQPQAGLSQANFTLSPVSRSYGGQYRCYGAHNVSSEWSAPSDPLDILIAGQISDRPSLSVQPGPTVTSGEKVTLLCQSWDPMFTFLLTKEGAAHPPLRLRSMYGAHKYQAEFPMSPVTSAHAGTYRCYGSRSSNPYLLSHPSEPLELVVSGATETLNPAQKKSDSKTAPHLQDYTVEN
The test is described as follows: ELISA: plate coated with LILRA4 ECD recombinant protein [continued) D].

In test [10] the target is T7, Human LILRA5 ECD recombinant protein with 6×His-tag (human, UniProt A6NI73 42-268).
T7 construct: range 1-268; Bought protein; not shown: 6×His-tag
T7 sequence (A6NI73 42-268 limits assumed, form in doubt): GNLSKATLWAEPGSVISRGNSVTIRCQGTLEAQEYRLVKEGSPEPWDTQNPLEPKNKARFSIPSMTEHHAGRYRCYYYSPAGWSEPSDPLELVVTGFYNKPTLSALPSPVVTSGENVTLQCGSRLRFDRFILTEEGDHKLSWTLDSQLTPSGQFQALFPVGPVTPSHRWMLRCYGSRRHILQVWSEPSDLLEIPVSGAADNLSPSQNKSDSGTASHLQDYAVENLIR
The test can be described thus: ELISA: plate coated with LILRA5 ECD recombinant protein, antibody at 0.5 ug/mL (method of example 3.2.1); mean OD450 printed over the bar [continued) E].

In test [11] the target is T8, Human LILRA3 ECD recombinant protein with 6×His-tag (human, UniProt Q8N6C8 24-439).
T8 construct: range 1-439; Bought protein; not shown: 6×His-tag
T8 sequence (Q8N6C8 24-439 limits assumed, form in doubt): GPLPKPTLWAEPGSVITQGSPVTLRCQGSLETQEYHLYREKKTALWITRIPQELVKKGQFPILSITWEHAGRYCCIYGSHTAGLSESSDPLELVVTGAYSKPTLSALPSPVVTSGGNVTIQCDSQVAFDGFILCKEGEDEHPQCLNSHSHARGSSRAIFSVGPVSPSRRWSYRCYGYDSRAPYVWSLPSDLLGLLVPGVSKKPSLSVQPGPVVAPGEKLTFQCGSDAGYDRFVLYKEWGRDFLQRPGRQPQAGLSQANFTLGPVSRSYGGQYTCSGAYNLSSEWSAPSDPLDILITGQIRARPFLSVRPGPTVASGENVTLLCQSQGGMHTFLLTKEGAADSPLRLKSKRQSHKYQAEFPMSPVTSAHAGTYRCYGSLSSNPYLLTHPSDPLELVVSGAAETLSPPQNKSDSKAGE
The test is described as follows: ELISA: plate coated with LILRA3 ECD recombinant protein, antibody at 0.5 ug/mL (method of example 3.2.1); mean OD450 printed over the bar [continued) C].

The target in test [12] is T9, 6×His-tagged human LILRB2 ECD recombinant protein (human, UniProt Q8N423 22-458, limits assumed).
T9 construct: Bought protein; not shown: 6×His-tag
T9 sequence (Q8N423 22-458 limits assumed): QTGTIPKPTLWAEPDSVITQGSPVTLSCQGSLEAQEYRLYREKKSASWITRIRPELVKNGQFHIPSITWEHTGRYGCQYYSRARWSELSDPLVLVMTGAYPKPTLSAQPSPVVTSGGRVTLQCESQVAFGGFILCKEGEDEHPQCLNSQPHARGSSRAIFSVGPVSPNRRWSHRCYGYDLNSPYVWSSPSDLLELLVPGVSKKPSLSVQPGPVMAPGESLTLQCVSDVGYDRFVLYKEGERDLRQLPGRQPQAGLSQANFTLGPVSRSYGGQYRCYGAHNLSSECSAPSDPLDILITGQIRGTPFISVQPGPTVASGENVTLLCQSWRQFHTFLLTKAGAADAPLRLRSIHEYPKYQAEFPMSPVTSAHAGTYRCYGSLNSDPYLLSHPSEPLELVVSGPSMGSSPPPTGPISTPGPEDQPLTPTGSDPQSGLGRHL
The test can be described thus: Octet tandem binning on captured 6×His LILRB2 ECD; competitor (Ab1) 1E1. For orientation: BLI is a label-free optical method that tracks binding on a fibre tip over time.

Test [13] has as its target T3, Human LILRB2 stably expressed on EL4 …. The test can be described thus: Competitive FACS: EL4/LILRB2 cells preincubated with 10 ug/mL antibody, then ANGPTL2 added; inhibition of the ligand's binding to the cells [panel ANGPTL2].
Description: as §1
Test [14] concerns the target T9, 6×His-tagged human LILRB2 ECD …. The test can be described thus: ELISA: plate coated with 6xHis-tagged human LILRB2 ECD, antibody at 0.5 ug/mL, HRP detection antibody; mean OD450 printed over the bar.
Description: (§2) Briefly, 0.5 μg/mL anti-LILRB2 antibodies were incubated in human LILRB2 ECD recombinant protein-coated ELISA plate at 37° C. for 1 hour. After washing, horseradish peroxidase (HRP) labeled detection antibody was added and incubated at 37° C. for 1 hour. Color development was conducted by the addition of 100 μl/well of TMB (3,3′,5,5′-Tetramethylbenzidine) solution. After incubation at room temperature (RT) for 10-15 minutes, the reaction was stopped by adding 100 μl 1N HCl. Then the plates were read immediately using plate reader for optical density at 450 nm.
Test [15] has as its target T3, Human LILRB2 stably expressed on EL4 …. The test is described as follows: Competitive FACS: EL4/LILRB2 cells preincubated with 10 ug/mL antibody, then HLA-G complex tetramer added; inhibition of the ligand's binding to the cells [panel HLA-G].
Description: as §1
For test [16] the target is unchanged. The test can be described thus: Competitive FACS: EL4/LILRB2 cells preincubated with 10 ug/mL antibody, then ANGPTL7 added; inhibition of the ligand's binding to the cells [panel ANGPTL7].
Description: as §1
The target in test [17] is T10, Human LILRB1 ECD recombinant protein with 6×His-tag (human, UniProt Q8NHL6 24-458, limits assumed).
T10 construct: Bought protein; not shown: 6×His-tag
T10 sequence (Q8NHL6 24-458 limits assumed): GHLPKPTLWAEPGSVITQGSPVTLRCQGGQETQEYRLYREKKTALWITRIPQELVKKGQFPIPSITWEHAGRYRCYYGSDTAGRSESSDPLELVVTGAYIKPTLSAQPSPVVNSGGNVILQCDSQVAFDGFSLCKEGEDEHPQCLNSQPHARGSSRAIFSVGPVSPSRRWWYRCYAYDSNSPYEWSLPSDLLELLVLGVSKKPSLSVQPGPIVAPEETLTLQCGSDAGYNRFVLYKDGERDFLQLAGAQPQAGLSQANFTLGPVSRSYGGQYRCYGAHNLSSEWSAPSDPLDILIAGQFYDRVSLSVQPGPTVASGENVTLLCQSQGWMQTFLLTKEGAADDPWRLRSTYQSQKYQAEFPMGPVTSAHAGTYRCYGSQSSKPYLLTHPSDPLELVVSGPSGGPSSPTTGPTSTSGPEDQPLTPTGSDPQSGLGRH
The test can be described thus: ELISA: plate coated with LILRB1 ECD recombinant protein [continued) F].

The target of test [18] is Human LILRB4 ECD recombinant protein with 6×His-tag (human) (UniProt Q8NHJ6). The test can be described thus: ELISA: plate coated with LILRB4 ECD recombinant protein, antibody at 0.5 ug/mL (method of example 3.2.1); mean OD450 printed over the bar [continued) H].
The target of test [19] is T4, Human LILRA1 ECD recombinant protein …. The test can be described thus: ELISA: plate coated with LILRA1 ECD recombinant protein, antibody at 0.5 ug/mL (method of example 3.2.1); mean OD450 printed over the bar.
Description: as §2
Test [20] deals with T9, 6×His-tagged human LILRB2 ECD …. The test is described as follows: Octet tandem binning on captured 6×His LILRB2 ECD; competitor (Ab1) J-19.
Description: Briefly, the HIS1K sensors were hydrolyzed for 10 minutes followed by capture of 6×His-tagged human LILRB2 ECD recombinant protein to 0.3 nm. The LILRB2 captured sensors were then exposed to Ab1 and Ab2 in tandem or Ab2 directly. The binding signals of Ab2 to LILRB2 under different conditions were detected respectively. Finally, the relative binding signals of Ab2 in tandem were calculated by normalization. High relative binding signals represent low competition between Ab2 and Ab1 for binding antigen. Likewise, low relative association signals represent high competition between Ab2 and Ab1.

T4 sequence (O75019 17-461 limits assumed): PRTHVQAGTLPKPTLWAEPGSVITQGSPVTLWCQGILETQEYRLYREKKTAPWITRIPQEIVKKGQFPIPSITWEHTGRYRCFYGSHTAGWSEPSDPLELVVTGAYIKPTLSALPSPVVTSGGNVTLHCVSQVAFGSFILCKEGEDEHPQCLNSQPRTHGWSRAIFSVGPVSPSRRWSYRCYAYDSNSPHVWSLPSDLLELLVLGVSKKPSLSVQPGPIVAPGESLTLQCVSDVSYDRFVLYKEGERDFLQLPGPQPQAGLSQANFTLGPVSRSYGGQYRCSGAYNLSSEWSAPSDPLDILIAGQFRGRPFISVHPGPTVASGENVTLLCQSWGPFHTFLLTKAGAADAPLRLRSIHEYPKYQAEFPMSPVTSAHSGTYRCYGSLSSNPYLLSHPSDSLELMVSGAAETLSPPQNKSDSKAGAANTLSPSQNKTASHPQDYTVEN
T1 sequence (O75023 24-458 limits assumed): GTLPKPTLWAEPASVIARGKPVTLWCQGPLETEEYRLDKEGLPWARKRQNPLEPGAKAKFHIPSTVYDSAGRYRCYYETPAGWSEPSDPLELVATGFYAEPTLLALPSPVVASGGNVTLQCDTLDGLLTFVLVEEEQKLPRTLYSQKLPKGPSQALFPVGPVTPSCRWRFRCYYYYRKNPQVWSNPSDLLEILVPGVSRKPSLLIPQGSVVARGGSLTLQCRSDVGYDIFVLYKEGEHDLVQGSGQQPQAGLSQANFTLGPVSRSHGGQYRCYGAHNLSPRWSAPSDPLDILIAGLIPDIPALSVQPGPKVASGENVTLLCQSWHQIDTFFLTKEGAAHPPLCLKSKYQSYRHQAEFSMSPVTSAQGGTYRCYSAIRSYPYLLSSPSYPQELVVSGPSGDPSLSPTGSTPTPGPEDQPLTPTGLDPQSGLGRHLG
T2 sequence (Q8N149 24-449 limits assumed): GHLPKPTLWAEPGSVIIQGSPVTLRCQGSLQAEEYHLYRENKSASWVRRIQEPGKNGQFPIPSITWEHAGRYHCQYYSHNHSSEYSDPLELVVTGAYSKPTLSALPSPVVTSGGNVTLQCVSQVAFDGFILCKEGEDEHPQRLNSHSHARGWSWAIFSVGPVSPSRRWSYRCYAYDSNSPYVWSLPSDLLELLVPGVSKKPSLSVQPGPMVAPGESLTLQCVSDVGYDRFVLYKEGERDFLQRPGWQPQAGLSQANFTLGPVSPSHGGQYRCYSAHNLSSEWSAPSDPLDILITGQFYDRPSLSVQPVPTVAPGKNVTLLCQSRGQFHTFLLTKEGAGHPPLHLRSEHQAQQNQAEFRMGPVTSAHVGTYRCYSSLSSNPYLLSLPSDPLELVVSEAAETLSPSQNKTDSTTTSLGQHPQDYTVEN

B1: 1E1 (antibody, V domains shown)
VH: QVQLQQWGAGLLKPSETLSLTCAVYGGSFSGYYWSWIRQPPGKGLEWIGEINHSGSTNYNPSLKSRVTISVDTSKNQFSLKLSSVTAADTAVYYCARLPTRWVTTRYFDLWGRGTLVTVSS
VL: QSVLTQPPSVSGAPGQRVTISCTGSSSNIGAGYDVHWYQQLPGTAPKLLIYGNSNRPSGVPDRFSVSKSGASASLAITGLQAEDEADYYCQSFDNSLSAYVFGGGTQLTVL
notes: Human IgG4 monoclonal antibody with S228P in the constant region, made according to US 2018/0298096 A1; also called benchmark antibody 1E1
In the case of B1, the binding result in test [1], in [2], in test [4], in test [5], in test [9] and in [17] was “no binding (tested: 0.5 ug/mL)” throughout. This molecule registered an IC50 in test [3] of 0.32 nM. The “TOP Blocking (%)” value in test [3] came out at 100%. In addition, the “Inhibition (%)” value in test [6] is 93%; in [7], 99%; in [8], 70%; in test [13], 94%; in test [15], 100%; in [16] it was 96%. The OD450 was 0.07 in test [10]; 0.07 in test [11]; 1.42 in [14]; 0.1 in test [18]; 0.15 in [19]. In addition, the “relative binding signal of Ab2 in tandem” value amounted to 3% in test [12] and 17% in test [20].

B2: J-19 (antibody, V domains shown)
VH: QVTLKESGPGILQPSHTLSLTCSFSGFSLNTYAMGVSWIRQPSGKGLEWLASIWWNGNKYNNPSLKSRLTVSKDTSNNQAFLKVTSVDTADTATYYCAHSRIIRFTDYVMDAWGQGASVTVSS
VL: DIQMTQSPASLSTFLGEPVTIECRASEDIYNDLAWYQQKPGKSPQLLIYNANSLHTGVPSRFSGSGSGTQYSLKINSLQSEDVASYFCQQYYDYPLTFGSGTKLEIK
notes: Human IgG4 monoclonal antibody with S228P in the constant region, made according to WO 2019/126514 A2; also called benchmark antibody J-19
B2: the binding result in test [1], in test [2], in test [4], in test [5], in test [9] and in [17] was “no binding (tested: 0.5 ug/mL)” in each case. The molecule also returned an IC50 in test [3] of 0.04 nM. Further, the “TOP Blocking (%)” value in test [3] came out at 100%. The “Inhibition (%)” value amounted to 13% in test [6]; 100% in test [7]; 70% in test [8]; 97% in test [13]; 100% in [15]; 97% in test [16]. Also, the OD450 worked out at 0.09 in test [10]; 0.08 in test [11]; 3.27 in [14]; 0.14 in [18]; 0.16 in [19]. The “relative binding signal of Ab2 in tandem” value was 32% in test [12] and -3% in test [20].

B3: 043c (antibody, V domains shown)
VH: QVQLQQSGAELAKPGASVKLSCKASGYTFTSYWMYWVKQRPGQGLEWIGHINPSSGYTKYNQKFKDKATLTADKSSSTAYMQLSSLTYEDSAVYYCARDPNWDNYWGQGTTLTVSS
VL: DIVMTQSHKFMSTSVGDRVSITCKASQDVSIAVAWYQQKPGQSPKLLIYSASYRYTGVPDRFTGSGSGTDFTFTISSVQAEDLAVYYCQQHYSTPYTFGGGTKLEIK
notes: Human IgG4 chimeric antibody with S228P mutation at the Fc region; also called chimeric antibody 043c; parental antibody 043c
Turning to B3, the binding result in test [1], in test [2], in test [4], in test [5], in test [9] and in [17] was “no binding (tested: 0.5 ug/mL)” throughout. In addition, in test [3], the IC50 is 0.1 nM. In addition, the “TOP Blocking (%)” value in [3] was 100%. Further, the “Inhibition (%)” value is 90% in test [6]; 100% in test [7]; 71% in test [8]; 93% in [13]; 100% in test [15]; 89% in test [16]. For the same molecule, the OD450 in test [10] amounted to 0.08; in test [11], 0.09; in [14], 2.72; in test [18], 0.11; in test [19] it was 0.15. Moreover, the “relative binding signal of Ab2 in tandem” value turned out to be 108% in test [12] and 100% in test [20].

Values taken from patent US20260008847A1 (ELPISCIENCE SUZHOU BIOPHARMA, published 2026).
